Sequences and labels used below:
B1: FUT8 (parent)
chain: NWRYATGGWETVFRPVSETCTDRS
B2: CPXM2 (parent)
chain: EILGCPLPDPNNYYHRRNEMTTTD

Our source for the protein stability index values is the supplement of paper PMC10567573.
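Also: lentivirally expressed fusions sorted by FACS into six bins by GFP to DsRed ratio, PSI derived from sequencing read proportions per bin multiplied by bin number.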

The variants in the first data set derive from B1. Nature of the data set: protein stability index of a GFP-peptide fusion (GPS, HEK-293T) (PSI 1-6); higher = more stable. The note with it: c terminus: a fixed tail appended.
As for NWRYATGGWETVFRPVSETCTDRP [S24P], the protein stability index was found to be 2.33. On the same count and under the same terms, the value for NWRYATGGWETVFRPVSETCTDRD [S24D] was 1.76; that for NWRYATGGWETVFRPVSETCTDRH [S24H] was 1.64. Take NWRYATGGWETVFRPVSETCTDRM [S24M]: the protein stability index worked out at 1.96. Still for that read-out and setting: the value for NWRYATGGWETVFRPVSETCTDRT [S24T] was 2.03; that for NWRYATGGWETVFRPVSETCTDRN [S24N] was 2.44; that for NWRYATGGWETVFRPVSETCTDRA [S24A] was 1.69. Still for that read-out and setting: as for NWRYATGGWETVFRPVSETCTDRF [S24F], the figure is 1.88.

NWRYATGGWETVFRPVSETCDDRS [T21D]: the protein stability index was determined as 1.34.

With NWRYATGGWETVFRPVSETCRDRS [T21R], the protein stability index is 2.8. Regarding NWRYATGGWETVFRPVSETCHDRS [T21H], the protein stability index turned out to be 1.56. Same read-out and setting: the value for NWRYATGGWETVFRPVSETCADRS [T21A] was 1.39; that for NWRYATGGWETVFRPVSETCGDRS [T21G] was 1.47. NWRYATGGWETVFRPVSETCPDRS [T21P]: the protein stability index was 1.26. Still for that read-out and setting: the value for NWRYATGGWETVFRPVSETCLDRS [T21L] was 2.43. In the case of NWRYATGGWETVFRPVSETCEDRS [T21E], the protein stability index was 1.55. Still for that read-out and setting: the value for NWRYATGGWETVFRPVSETCVDRS [T21V] was 1.9; that for NWRYATGGWETVFRPVSETCFDRS [T21F] was 2.31. Same read-out and setting: as for NWRYATGGWETVFRPVSETCYDRS [T21Y], the figure is 1.84; as for NWRYATGGWETVFRPVSETCKDRS [T21K], 2.49. Same read-out and setting: the value for NWRYATGGWETVFRPVSETCMDRS [T21M] was 3.38. With NWRYATGGWETVFRPVSWTCTDRS [E18W], the protein stability index is 2.45.

Consider NWRYATGGWETVFRPVSITCTDRS [E18I], for which the protein stability index is 2.05. NWRYATGGWETVFRPVSYTCTDRS [E18Y]: the protein stability index is 2.18.

As to NWRYATGGWETVFRPVSGTCTDRS [E18G], the protein stability index turned out to be 1.41. With NWRYATGGWETVFRPVSNTCTDRS [E18N], the protein stability index was determined as 1.75. Still for that read-out and setting: the value for NWRYATGGWETVFRPVSLTCTDRS [E18L] was 1.97; that for NWRYATGGWETVFRPVSRTCTDRS [E18R] was 1.8. NWRYATGGWETVFRPVSMTCTDRS [E18M]: the protein stability index was 1.4. The same measure, in the same setting: as for NWRYATGGWETVFRPVSFTCTDRS [E18F], the figure is 2.36. Still for that read-out and setting: the value for NWRYATGGWETVFRPVSPTCTDRS [E18P] was 2.06; that for NWRYATGGWETVFRPVSTTCTDRS [E18T] was 2.15. Same read-out and setting: the value for NWRYATGGWETVFRPVSVTCTDRS [E18V] was 2.76; that for NWRYATGGWETVFRPVSDTCTDRS [E18D] was 2.28; that for NWRYATGGWETVFRPVSHTCTDRS [E18H] was 1.51.

Consider NWRYATGGWETVFRPVSKTCTDRS [E18K], for which the protein stability index is 2.27.

As for NWRYATGGWETVFRPVSQTCTDRS [E18Q], the protein stability index stood at 1.54.

In a further data set the parent is B2. Described as above. Conditions: c terminus: a fixed tail appended.
With EILPCPLPDPNNYYHRRNEMTTTD [G4P], the protein stability index turned out to be 4.03. On the same count and under the same terms, the value for EILQCPLPDPNNYYHRRNEMTTTD [G4Q] was 3.5; that for EILGCPLPDPNNYYHRRNEMDTTD [T21D] was 4.25; that for EILGCPLPDPNNYYHRRNEMCTTD [T21C] was 2.92. For EILGCPLPDPNNYWHRRNEMTTTD [Y14W], the protein stability index amounted to 3.75.

For the variant EILGCPLPDPNNYHHRRNEMTTTD [Y14H], the protein stability index stood at 3.84. Still for that read-out and setting: as for EILGCPLPDPNNYIHRRNEMTTTD [Y14I], the figure is 3.46; as for EILGCPLPDPNNYYHRRNEMTTSD [T23S], 3.39. Same read-out and setting: the value for EILGCPLPDPNNYYHRRNEMTTQD [T23Q] was 3.54; that for EILGCPLPDPNNYYHRANEMTTTD [R17A] was 3.78. The same measure, in the same setting: as for EILGCPLPDPNNYYHRKNEMTTTD [R17K], the figure is 3.62; as for EILGCPLPDPNNYYHRHNEMTTTD [R17H], 3.3; as for EILGCPMPDPNNYYHRRNEMTTTD [L7M], 3.59. Turning to EILGCPHPDPNNYYHRRNEMTTTD [L7H], the protein stability index worked out at 3.88. On the same count and under the same terms, as for EILGCPLPDPNNYYMRRNEMTTTD [H15M], the figure is 3.23. The same measure, in the same setting: as for EILGCPLPDPNNYYYRRNEMTTTD [H15Y], the figure is 3.16. Same read-out and setting: the value for EISGCPLPDPNNYYHRRNEMTTTD [L3S] was 4.41.

Turning to ELLGCPLPDPNNYYHRRNEMTTTD [I2L], the protein stability index came out at 3.34.

For the variant EFLGCPLPDPNNYYHRRNEMTTTD [I2F], the protein stability index came to 3.75. For the variant EHLGCPLPDPNNYYHRRNEMTTTD [I2H], the protein stability index is 4.64.

Take EELGCPLPDPNNYYHRRNEMTTTD [I2E]: the protein stability index came to 4.91. The same measure, in the same setting: the value for EILGCPLPDPNNYYHRRNGMTTTD [E19G] was 3.59. With EILGCPLPDPGNYYHRRNEMTTTD [N11G], the protein stability index came out at 3.15. The same measure, in the same setting: as for EILGCPLPDFNNYYHRRNEMTTTD [P10F], the figure is 3.18; as for EILGCPLPDCNNYYHRRNEMTTTD [P10C], 3.26.

As for EILGCPLPDENNYYHRRNEMTTTD [P10E], the protein stability index worked out at 4.08.

On to EILGCPLPDINNYYHRRNEMTTTD [P10I], for which the protein stability index was 3.09. Same read-out and setting: the value for EILGCPLPDKNNYYHRRNEMTTTD [P10K] was 3.41; that for RILGCPLPDPNNYYHRRNEMTTTD [E1R] was 3.59; that for GILGCPLPDPNNYYHRRNEMTTTD [E1G] was 3.58. The same measure, in the same setting: as for AILGCPLPDPNNYYHRRNEMTTTD [E1A], the figure is 3.2; as for EILGCPLPDPNNYYHRRKEMTTTD [N18K], 3.57.

Turning to EILGCPLPDPNNYYHRRPEMTTTD [N18P], the protein stability index worked out at 3.21. As to EILGCPLPDPNNYYHRRNEMTTTF [D24F], the protein stability index was 1.47. Turning to EILGCPLPDPNNYYHRRNEMTTTQ [D24Q], the protein stability index amounted to 2.91.

Take EILGCPLPWPNNYYHRRNEMTTTD [D9W]: the protein stability index was determined as 2.44. On the same count and under the same terms, the value for EILGCPLPQPNNYYHRRNEMTTTD [D9Q] was 3.35; that for EILGCPLPRPNNYYHRRNEMTTTD [D9R] was 3.34.

Turning to EILGAPLPDPNNYYHRRNEMTTTD [C5A], the protein stability index turned out to be 3.79. For the variant EILGSPLPDPNNYYHRRNEMTTTD [C5S], the protein stability index is 4.17. The same measure, in the same setting: as for EILGIPLPDPNNYYHRRNEMTTTD [C5I], the figure is 3.28; as for EILGCALPDPNNYYHRRNEMTTTD [P6A], 3.16; as for EILGCGLPDPNNYYHRRNEMTTTD [P6G], 2.87. Still for that read-out and setting: the value for EILGCLLPDPNNYYHRRNEMTTTD [P6L] was 2.14. On the same count and under the same terms, as for EILGCCLPDPNNYYHRRNEMTTTD [P6C], the figure is 2.92; as for EILGCPLPDPNNYYHRRNERTTTD [M20R], 3.57. Take EILGCPLPDPNNNYHRRNEMTTTD [Y13N]: the protein stability index amounted to 3.89. The same measure, in the same setting: as for EILGCPLPDPNNIYHRRNEMTTTD [Y13I], the figure is 3.92; as for EILGCPLPDPNNHYHRRNEMTTTD [Y13H], 4.18; as for EILGCPLMDPNNYYHRRNEMTTTD [P8M], 2.47. On the same count and under the same terms, the value for EILGCPLPDPNNYYHRRNEMTFTD [T22F] was 2.77; that for EILGCPLPDPNNYYHRRNEMTRTD [T22R] was 3; that for EILGCPLPDPNNYYHRRNEMTGTD [T22G] was 3.56. With EILGCPLPDPNNYYHRRNEMTKTD [T22K], the protein stability index turned out to be 3.54. Still for that read-out and setting: as for EILGCPLPDPNNYYHRRNEMTATD [T22A], the figure is 3.15; as for EILGCPLPDPNNYYHRRNEMTETD [T22E], 4.39; as for EILGCPLPDPNNYYHRRNEMTHTD [T22H], 3.51.
